Reference: PMC6486591, “Cryo-EM structures of the pore-forming A subunit from the Yersinia entomophaga ABC toxin” (Nature Communications, 2019)

B1: Chi2 (enzyme)
chain: MVNKYTYTSSKAMSDISDVIGEPLAAWDSQVGGRVFNVIFDGKVYTNTYWVERWQVPGIGSSDGNPHNAWKFVRAATADEINKIGNPTTADVKPTENIPSPILVEDKYTEETYSRPDVNFKEDGSQGNLSYTATRVCAPMYNHYVGDKTKPKLSAYITDWCQYDARLDGGGSKEEERGRGFDLATLMQNPATYDRLIFSFLGICGDIGNKSKKVQEVWDGWNAQAPSLGLPQIGKGHIVPLDPYGDLGTARNVGLPPESADTSIESGTFLPYYQQNRAAGLLGGLRELQKKAHAMGHKLDLAFSIGGWSLSSYFSALAENPDERRVFVASVVDFFVRFPMFSCVDIDWEYPGGGGDEGNISSDKDGENYVLLIKELRSALDSRFGYSNRKEISIACSGVKAKLKKSNIDQLVANGLDNIYLMSYDFFGTIWADYIGHHTNLYSPKDPGEQELFDLSAEAAIDYLHNELGIPMEKIHLGYANYGRSAVGGDLTTRQYTKNGPALGTMENGAPEFFDIVKNYMDAEHSLSMGKNGFVLMTDTNADADFLFSEAKGHFISLDTPRTVKQKGEYAAKNKLGGVFSWSGDQDCGLLANAAREGLGYVADSNQETIDMGPLYNPGKEIYLKSISEIKSK
notes: Chi2, endochitinase of Yersinia entomophaga, subunit of YenTcA; N-terminal domain residues 1-91 (unmodelled), chitinase domain residues 92-632 (earlier crystal structure PDB 4dws); Natively expressed, no fusion tags; Five copies stand in the YenTcA complex; also called endochitinase Chi2; Chi2 subunit
B2: Chi1 (enzyme)
chain: MEKEEKSNLIYDKDPGYVWDNKNECEGAAEETYQELNYEPSISADKLTWTPTRLAKTVFNTYEDDDDFNVLCYFTDWSQYDPRIINKEIRDTGGRSADILRLNTPDGRPFKRLIYSFGGLIGDKKYSADGNASIAVRLGVATDPDDAIANHKGKTIPVDPDGAVLASINCGFTKWEAGDANERYNQEKAKGLLGGFRLLHEADKELEFSLSIGGWSMSGLFSEIAKDEILRTNFVEGIKDFFQRFPMFSHLDIDWEYPGSIGAGNPNSPDDGANFAILIQQITDAKISNLKGISIASSADPAKIDAANIPALMDAGVTGINLMTYDFFTLGDGKLSHHTNIYRDPSDVYSKYSIDDAVTHLIDEKKVDPKAIFIGYAGYTRNAKNATITTSIPSEEALKGTYTDANQTLGSFEYSVLEWTDIICHYMDFEKGEGRNGYKLVHDKVAKADYLYSEATKVFISLDTPRSVRDKGRYVKDKGLGGLFIWSGDQDNGILTNAAHEGLKRRIKNKVIDMTPFYLDSDEELPTYTEPAEPQCEACNIK
notes: Chi1, endochitinase of Yersinia entomophaga, subunit of YenTcA; earlier crystal structure PDB 3oa5 was fitted as a rigid body; Natively expressed, no fusion tags; Five copies stand in YenTcA; Chi1 is not in the deposited atomic model 6ogd; also called endochitinase Chi1; Chi1 subunit

What was measured:
[1] = biological target: T1, YenA1 (Yersinia entomophaga, UniProt B6A877 1-1164); assay: cryo-EM structure; YenTcA soluble pre-pore form, single-particle cryo-EM, 4.4 Å average resolution, C5 symmetry; 0.1 mg/mL in 25 mM Tris, 150 mM NaCl, pH 7.5, with 10 mM NDSB-195; conditions: both partners purified
T1 construct: YenA1, TcA-like protein of Yersinia entomophaga (130 kDa), subunit of YenTcA; residues 45-304 and 584-1164 are resolved in the alpha-helical shell, residues 305-583 are an unmodelled domain insertion; Natively expressed, no fusion tags; Five copies stand in the YenTcA complex; also called TcA-like protein YenA1
T1 sequence (B6A877 whole entry, the tested form may be a part): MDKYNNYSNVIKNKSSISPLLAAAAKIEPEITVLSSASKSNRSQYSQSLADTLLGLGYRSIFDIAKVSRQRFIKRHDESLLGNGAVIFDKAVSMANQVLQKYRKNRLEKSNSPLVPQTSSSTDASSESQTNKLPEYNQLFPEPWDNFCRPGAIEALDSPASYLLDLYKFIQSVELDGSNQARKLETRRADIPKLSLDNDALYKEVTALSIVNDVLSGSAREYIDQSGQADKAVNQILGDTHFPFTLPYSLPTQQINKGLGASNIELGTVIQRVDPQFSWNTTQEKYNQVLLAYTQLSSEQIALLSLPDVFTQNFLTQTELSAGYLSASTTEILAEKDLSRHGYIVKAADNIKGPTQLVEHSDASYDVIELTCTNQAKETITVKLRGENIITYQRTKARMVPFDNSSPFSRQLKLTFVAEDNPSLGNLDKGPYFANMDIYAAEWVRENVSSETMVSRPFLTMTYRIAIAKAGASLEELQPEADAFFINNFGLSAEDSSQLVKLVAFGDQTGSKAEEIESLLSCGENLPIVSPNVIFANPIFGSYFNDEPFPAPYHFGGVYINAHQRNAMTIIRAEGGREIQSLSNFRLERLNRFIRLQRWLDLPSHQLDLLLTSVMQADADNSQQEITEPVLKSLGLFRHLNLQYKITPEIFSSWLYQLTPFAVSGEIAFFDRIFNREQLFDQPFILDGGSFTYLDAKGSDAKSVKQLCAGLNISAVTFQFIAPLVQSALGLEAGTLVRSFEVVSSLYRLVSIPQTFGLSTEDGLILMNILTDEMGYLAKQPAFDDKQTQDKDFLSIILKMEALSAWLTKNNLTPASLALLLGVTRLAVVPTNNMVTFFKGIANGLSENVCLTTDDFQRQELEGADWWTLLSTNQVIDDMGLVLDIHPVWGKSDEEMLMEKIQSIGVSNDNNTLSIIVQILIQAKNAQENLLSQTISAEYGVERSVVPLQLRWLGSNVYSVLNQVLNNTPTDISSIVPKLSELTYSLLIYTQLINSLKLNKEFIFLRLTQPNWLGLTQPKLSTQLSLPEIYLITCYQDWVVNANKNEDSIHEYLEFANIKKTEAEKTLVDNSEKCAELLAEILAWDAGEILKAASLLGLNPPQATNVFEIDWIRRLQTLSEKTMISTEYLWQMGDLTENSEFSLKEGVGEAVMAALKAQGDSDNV

[2] = biological target: T2, YenA2 (Yersinia entomophaga, UniProt B6A878 1-1364); assay: as above; conditions: both partners purified
T2 construct: YenA2, TcA-like protein of Yersinia entomophaga (156 kDa), subunit of YenTcA; UniProt entry name B6A878_9GAMM is printed; holds the shell domain (1-165; 559-812), neuraminidase-like domain (166-332; Natively expressed, no fusion tags; Five copies stand in the YenTcA complex and form the pentameric pore; also called TcA-like protein YenA2
T2 sequence (B6A878 whole entry, the tested form may be a part): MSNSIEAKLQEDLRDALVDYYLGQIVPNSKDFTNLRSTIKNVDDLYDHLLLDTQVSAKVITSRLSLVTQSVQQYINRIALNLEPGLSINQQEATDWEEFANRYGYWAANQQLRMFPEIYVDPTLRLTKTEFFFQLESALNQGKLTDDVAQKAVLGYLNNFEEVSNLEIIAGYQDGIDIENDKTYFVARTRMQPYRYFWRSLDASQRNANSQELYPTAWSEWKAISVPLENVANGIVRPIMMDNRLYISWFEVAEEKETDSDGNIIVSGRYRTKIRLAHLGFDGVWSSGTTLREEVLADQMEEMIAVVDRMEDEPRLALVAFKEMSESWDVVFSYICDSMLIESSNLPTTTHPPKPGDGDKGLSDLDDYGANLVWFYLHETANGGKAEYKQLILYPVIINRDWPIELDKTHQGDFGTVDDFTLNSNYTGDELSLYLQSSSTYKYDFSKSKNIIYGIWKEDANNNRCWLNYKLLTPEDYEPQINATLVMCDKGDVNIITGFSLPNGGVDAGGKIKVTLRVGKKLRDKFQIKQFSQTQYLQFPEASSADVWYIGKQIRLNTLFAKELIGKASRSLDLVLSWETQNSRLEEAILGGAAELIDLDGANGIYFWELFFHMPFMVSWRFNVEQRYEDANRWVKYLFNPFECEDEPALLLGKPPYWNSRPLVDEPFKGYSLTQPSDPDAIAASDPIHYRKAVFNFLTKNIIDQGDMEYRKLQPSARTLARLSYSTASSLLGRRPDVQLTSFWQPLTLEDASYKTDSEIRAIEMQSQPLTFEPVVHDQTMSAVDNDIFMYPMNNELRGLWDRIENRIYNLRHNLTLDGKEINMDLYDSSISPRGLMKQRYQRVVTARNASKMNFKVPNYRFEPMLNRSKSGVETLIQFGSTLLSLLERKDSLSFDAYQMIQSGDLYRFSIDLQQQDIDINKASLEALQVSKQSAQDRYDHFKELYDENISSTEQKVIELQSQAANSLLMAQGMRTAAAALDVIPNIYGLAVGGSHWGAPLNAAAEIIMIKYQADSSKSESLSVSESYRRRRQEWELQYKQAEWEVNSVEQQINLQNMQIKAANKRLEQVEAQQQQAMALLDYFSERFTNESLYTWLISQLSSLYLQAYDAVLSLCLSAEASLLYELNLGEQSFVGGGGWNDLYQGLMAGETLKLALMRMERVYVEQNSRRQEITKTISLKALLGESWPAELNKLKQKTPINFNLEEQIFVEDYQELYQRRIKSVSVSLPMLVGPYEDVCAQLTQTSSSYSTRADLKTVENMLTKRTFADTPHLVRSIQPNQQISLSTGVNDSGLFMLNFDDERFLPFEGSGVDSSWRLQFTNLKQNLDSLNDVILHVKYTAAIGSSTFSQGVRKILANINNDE

| Binder | binding result [1] | binding result [2] |
| --- | --- | --- |
| B1 | binds |  |
| B2 |  | binds |
